Source: patent US20190002515A1 (published 2019)

Molecular target: T1, GAGE-1 peptide on HLA-DRA*01:01 / HLA-DRB5*01:01 (human)
T1 peptide: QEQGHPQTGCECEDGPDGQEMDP
Test: cytokine release

binding result: recognises
B1: TCR specific for GAGE-1 of SEQ ID NOs 7 and 8 (TCR, V domains shown)
Valpha: EDKVVQSPLSLVVHEGDTVTLNCSYEVTNFRSLLWYKQEKKAPTFLFMLTSSGIEKKSGRLSSILDKKELSSILNITATQTGDSAIYLCAERTQGGSEKLVFGKGTKLTVNP
Vbeta: DAGITQSPRHKVTETGTPVTLRCHQTENHRYMYWYRQDPGHGLRLIHYSYGVKDTDKGEVSDGYSVSRSKTEDFLLTLESATSSQTSVYFCATQRNTEAFFGQGTRLTVV
